Experimental data reported in the supplement of paper PMC6757056.
± gives the standard deviation of the averaged measurements.

B1: library; a variant is named by its letters at N, in order (parent)
chain: GCUGUCACCGAGAAACUGUGAAGUAUAUCUUAAACCUGGGCACUUAAAAGAUAUAUGGAGUUAGUAGUGCAACCUGCUCGGUCUGAUGAGUCCNNNNNNGGACGAAACAGC

Key:
[1] = variants of: B1; experiment: normalized RNA/DNA level without ligand (relative to sTRSVctl = 100) (log10 (% of sTRSVctl)); HEK293T; ligand: cyclic di-GMP (c-di-GMP-II aptamer); higher = less ribozyme self-cleavage, higher mRNA level; conditions: reporter: mCherry (pCS4076), ligand present: no
How it was run: (§1)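 Library plasmids carrying ribozyme switches linked to mCherry, or to eGFP in some ligand experiments, were transfected into HEK293T at 4 µg per 6-well well, with any ligand added 1 h earlier. Seventy-two hours on, total RNA was extracted with EDTA and reverse-transcribed, amplified, barcoded and sequenced. RNA level was RNA over DNA reads normalized to a spiked-in non-cleaving sequence or to the top sequences, then scaled and log-transformed. The top set was 25 sequences, the transform was ×100 and log10, and sequences needed ≥100 DNA reads.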

[2] = variants of: B1; experiment: normalized RNA/DNA level with ligand (relative to sTRSVctl = 100) (log10 (% of sTRSVctl)); HEK293T; ligand: cyclic di-GMP (c-di-GMP-II aptamer); ligand concentration (+) RNA-Seq: 1 mM; higher = less ribozyme self-cleavage, higher mRNA level; conditions: reporter: mCherry (pCS4076), ligand present: yes
How it was run: as §1

Row | Variant | normalized RNA/DNA level without ligand (log10) [1] | normalized RNA/DNA level with ligand (log10) [2]
1 | CUUGAU | 1.66 ± 0.023 | 1.82 ± 0.13
2 | AUGGUC | 1.67 ± 0.018 | 1.81 ± 0.1
3 | AUGGUU | 1.46 ± 0.03 | 1.68 ± 0.1
4 | AUUCCU | 1.74 ± 0.044 | 1.86 ± 0.1
5 | AUUCCG | 1.75 ± 0.021 | 1.84 ± 0.078
6 | AUUGCA | 1.67 ± 0.055 | 1.81 ± 0.095
7 | AUUGCU | 1.73 ± 0.047 | 1.88 ± 0.081
8 | AUUGCG | 1.713 ± 0.012 | 1.83 ± 0.09
9 | UUUAUG | 1.707 ± 0.0064 | 1.84 ± 0.11
10 | UUUAUU | 1.72 ± 0.084 | 1.88 ± 0.15
11 | UUUAUA | 1.7 ± 0.035 | 1.84 ± 0.1
12 | UUUAUC | 1.74 ± 0.056 | 1.83 ± 0.12
13 | AUUAUU | 1.63 ± 0.042 | 1.79 ± 0.1
14 | AUUAUG | 1.58 ± 0.022 | 1.77 ± 0.1
15 | AUUAUA | 1.58 ± 0.03 | 1.74 ± 0.095
16 | CUUCUG | 1.78 ± 0.061 | 1.85 ± 0.057
17 | CUUCUU | 1.5858 ± 0.00043 | 1.75 ± 0.2
18 | CUUCUC | 1.77 ± 0.049 | 1.86 ± 0.14
19 | UUUCUG | 1.795 ± 0.012 | 1.92 ± 0.091
20 | UUUCUC | 1.8 ± 0.024 | 1.92 ± 0.085
21 | GUGGGC | 1.44 ± 0.058 | 1.68 ± 0.13
22 | GUGGGA | 1.53 ± 0.073 | 1.72 ± 0.07
23 | GUGGGG | 1.65 ± 0.021 | 1.8 ± 0.14
24 | GUGGGU | 1.66 ± 0.081 | 1.85 ± 0.064

Row | Variant | normalized RNA/DNA level without ligand (log10) [1] | normalized RNA/DNA level with ligand (log10) [2]
25 | GUUAAC | 1.67 ± 0.046 | 1.8 ± 0.037
26 | GUUAAA | 1.51 ± 0.079 | 1.7 ± 0.12
27 | AUUCAU | 1.74 ± 0.045 | 1.84 ± 0.11
28 | AUUCAC | 1.76 ± 0.021 | 1.88 ± 0.09
29 | AUUCAA | 1.58 ± 0.032 | 1.77 ± 0.15
30 | UUUCAC | 1.73 ± 0.093 | 1.84 ± 0.14
31 | UUUCAU | 1.72 ± 0.035 | 1.83 ± 0.12
32 | UUUCAA | 1.712 ± 0.0062 | 1.86 ± 0.092
33 | UUUCAG | 1.75 ± 0.022 | 1.86 ± 0.1
34 | GUUGGA | 1.56 ± 0.097 | 1.72 ± 0.077
35 | GUUGGG | 1.6 ± 0.1 | 1.76 ± 0.065
36 | GUUGGC | 1.61 ± 0.022 | 1.79 ± 0.09
37 | GUUGGU | 1.611 ± 0.011 | 1.77 ± 0.1
38 | CUGUAA | 1.26 ± 0.086 | 1.51 ± 0.1
39 | CUGUAG | 1.66 ± 0.051 | 1.84 ± 0.1
40 | CUGUAC | 1.67 ± 0.033 | 1.82 ± 0.096
41 | AUUCGA | 1.58 ± 0.023 | 1.71 ± 0.066
42 | AUUCGU | 1.79 ± 0.024 | 1.86 ± 0.12
43 | AUUAGU | 1.686 ± 0.01 | 1.83 ± 0.11
44 | AUUAGA | 1.52 ± 0.12 | 1.69 ± 0.058
45 | AUUAGG | 1.56 ± 0.065 | 1.72 ± 0.17
46 | GUUGCC | 1.76 ± 0.013 | 1.87 ± 0.1
47 | GUUGCA | 1.81 ± 0.038 | 1.87 ± 0.1
48 | GUUGCU | 1.7 ± 0.039 | 1.84 ± 0.1

Row | Variant | normalized RNA/DNA level without ligand (log10) [1] | normalized RNA/DNA level with ligand (log10) [2]
49 | UUUGAU | 1.649 ± 0.014 | 1.82 ± 0.12
50 | UUUGAA | 1.59 ± 0.017 | 1.76 ± 0.1
51 | UUUGAG | 1.71 ± 0.038 | 1.83 ± 0.12
52 | UUUGAC | 1.71 ± 0.03 | 1.87 ± 0.11
53 | AUGGCG | 1.69 ± 0.039 | 1.83 ± 0.053
54 | AUGGCU | 1.75 ± 0.031 | 1.86 ± 0.15
55 | AUGGCC | 1.78 ± 0.024 | 1.9 ± 0.13
56 | AUGGCA | 1.61 ± 0.02 | 1.75 ± 0.046
57 | UUUCGC | 1.789 ± 0.0088 | 1.89 ± 0.14
58 | UUUCGU | 1.72 ± 0.025 | 1.86 ± 0.083
59 | UUUCGG | 1.8 ± 0.066 | 1.93 ± 0.12
60 | UUGGAG | 1.6 ± 0.037 | 1.71 ± 0.066
61 | UUGGAU | 1.63 ± 0.032 | 1.83 ± 0.1
62 | AUUGAU | 1.63 ± 0.029 | 1.79 ± 0.061
63 | AUUGAC | 1.663 ± 0.0079 | 1.79 ± 0.15
64 | AUUGAG | 1.57 ± 0.018 | 1.7 ± 0.13
65 | UUUGCC | 1.838 ± 0.011 | 1.89 ± 0.079
66 | UUUGCA | 1.78 ± 0.018 | 1.85 ± 0.1
67 | UUUGCU | 1.76 ± 0.057 | 1.88 ± 0.14
68 | UUUGCG | 1.78 ± 0.066 | 1.88 ± 0.12
69 | AUGUGG | 1.59 ± 0.051 | 1.72 ± 0.081
70 | AUGUGC | 1.6033 ± 0.00051 | 1.77 ± 0.14
71 | AUGUGA | 1.44 ± 0.082 | 1.65 ± 0.11
72 | CUGGUC | 1.68 ± 0.032 | 1.8 ± 0.14

Row | Variant | normalized RNA/DNA level without ligand (log10) [1] | normalized RNA/DNA level with ligand (log10) [2]
73 | CUGGUU | 1.67 ± 0.025 | 1.83 ± 0.08
74 | CUGGUA | 1.38 ± 0.086 | 1.59 ± 0.076
75 | CUGGUG | 1.39 ± 0.017 | 1.58 ± 0.16
76 | UUUAGG | 1.87 ± 0.057 | 1.96 ± 0.14
77 | UUUAGA | 1.716 ± 0.011 | 1.87 ± 0.086
78 | UUUAGC | 1.76 ± 0.054 | 1.86 ± 0.14
79 | UUGUCG | 1.79 ± 0.032 | 1.89 ± 0.05
80 | UUGUCC | 1.8 ± 0.026 | 1.89 ± 0.098
81 | UUGUCU | 1.8 ± 0.03 | 1.92 ± 0.086
82 | UUGUCA | 1.77 ± 0.045 | 1.9 ± 0.1
83 | CUUAGA | 1.61 ± 0.024 | 1.79 ± 0.12
84 | CUUAGU | 1.78 ± 0.051 | 1.88 ± 0.058
85 | CUUAGG | 1.79 ± 0.072 | 1.89 ± 0.13
86 | GUUGUA | 1.57 ± 0.024 | 1.77 ± 0.1
87 | GUUGUC | 1.53 ± 0.11 | 1.73 ± 0.087
88 | GUGGCU | 1.76 ± 0.029 | 1.86 ± 0.074
89 | GUGGCG | 1.85 ± 0.022 | 1.87 ± 0.094
90 | GUGGCA | 1.81 ± 0.027 | 1.91 ± 0.097
91 | GUUGAU | 1.61 ± 0.033 | 1.76 ± 0.14
92 | GUUGAA | 1.44 ± 0.083 | 1.65 ± 0.12
93 | CUUGGC | 1.79 ± 0.034 | 1.92 ± 0.085
94 | CUUGGG | 1.74 ± 0.031 | 1.88 ± 0.13
95 | CUUGGU | 1.76 ± 0.031 | 1.84 ± 0.11
96 | UUGGUC | 1.77 ± 0.0052 | 1.86 ± 0.11

Row | Variant | normalized RNA/DNA level without ligand (log10) [1] | normalized RNA/DNA level with ligand (log10) [2]
97 | UUGGUU | 1.7 ± 0.027 | 1.84 ± 0.097
98 | UUGGUG | 1.6 ± 0.1 | 1.78 ± 0.11
99 | UUGGUA | 1.45 ± 0.084 | 1.73 ± 0.11
100 | CUGUUC | 1.64 ± 0.038 | 1.79 ± 0.12
101 | CUGUUU | 1.575 ± 0.0091 | 1.72 ± 0.12
102 | CUGUUG | 1.56 ± 0.035 | 1.69 ± 0.076
103 | GUGUUU | 1.72 ± 0.023 | 1.9 ± 0.092
104 | UUGUAC | 1.74 ± 0.089 | 1.85 ± 0.18
105 | UUGUAA | 1.685 ± 0.015 | 1.86 ± 0.15
106 | CUGGCA | 1.638 ± 0.015 | 1.73 ± 0.14
107 | CUGGCG | 1.74 ± 0.057 | 1.85 ± 0.092
108 | CUGGCC | 1.8041 ± 0.00089 | 1.87 ± 0.096
109 | CUGGCU | 1.771 ± 0.0077 | 1.87 ± 0.067
110 | GUUCCC | 1.8 ± 0.021 | 1.9 ± 0.13
111 | GUUCCU | 1.76 ± 0.079 | 1.89 ± 0.13
112 | GUUCCG | 1.82 ± 0.039 | 1.94 ± 0.1
113 | UUGGGG | 1.61 ± 0.057 | 1.78 ± 0.094
114 | UUGGGU | 1.68 ± 0.024 | 1.84 ± 0.088
115 | UUGGGC | 1.72 ± 0.023 | 1.84 ± 0.091
116 | UUGGGA | 1.57 ± 0.1 | 1.72 ± 0.1
